Laboratory results taken from patent publication US20190314526A1.

Key:
[1] = biological target: AAV-2 capsid mutant N568A/V571A (rAAV-2 virion) (AAV-2) (UniProt P03135); experiment: cell-based or functional assay
[2] = biological target: AAV-2 capsid mutant Q438A (rAAV-2 virion) (AAV-2) (UniProt P03135); experiment: cell-based or functional assay
[3] = biological target: AAV-2 capsid mutant H372K (rAAV-2 virion) (AAV-2) (UniProt P03135); experiment: cell-based or functional assay
[4] = biological target: AAV-2 capsid mutant R334A (rAAV-2 virion) (AAV-2) (UniProt P03135); experiment: all-human IgG ELISA, against wild type
[5] = biological target: AAV-2 capsid mutant N568A/V571A (rAAV-2 virion) (AAV-2) (UniProt P03135); experiment: all-human IgG ELISA, against wild type
[6] = biological target: AAV-2 capsid mutant E393D (rAAV-2 virion) (AAV-2) (UniProt P03135); experiment: all-human IgG ELISA, against wild type
[7] = biological target: AAV-2 capsid mutant R334A/G449A (rAAV-2 virion) (AAV-2) (UniProt P03135); experiment: all-human IgG ELISA, against wild type
[8] = biological target: AAV-2 capsid mutant N360H (rAAV-2 virion) (AAV-2) (UniProt P03135); experiment: all-human IgG ELISA, against wild type
[9] = biological target: AAV-2 capsid mutant N568A (rAAV-2 virion) (AAV-2) (UniProt P03135); experiment: all-human IgG ELISA, against wild type
[10] = biological target: AAV-2 capsid mutant N568K (rAAV-2 virion) (AAV-2) (UniProt P03135); experiment: all-human IgG ELISA, against wild type
[11] = biological target: AAV-2 capsid mutant G246A (rAAV-2 virion) (AAV-2) (UniProt P03135); experiment: all-human IgG ELISA, against wild type
[12] = biological target: AAV-2 capsid mutant H372K (rAAV-2 virion) (AAV-2) (UniProt P03135); experiment: all-human IgG ELISA, against wild type
[13] = biological target: AAV-2 capsid mutant H134Q (rAAV-2 virion) (AAV-2) (UniProt P03135); experiment: all-human IgG ELISA, against wild type
[14] = biological target: AAV-2 capsid mutant E411A/T413A/G449A/N450A (rAAV-2 virion) (AAV-2) (UniProt P03135); experiment: all-human IgG ELISA, against wild type
[15] = biological target: AAV-2 capsid mutant T413K (rAAV-2 virion) (AAV-2) (UniProt P03135); experiment: all-human IgG ELISA, against wild type
[16] = biological target: AAV-2 capsid mutant S130A (rAAV-2 virion) (AAV-2) (UniProt P03135); experiment: all-human IgG ELISA, against wild type
[17] = biological target: AAV-2 capsid mutant R334A/G449A/N568A (rAAV-2 virion) (AAV-2) (UniProt P03135); experiment: all-human IgG ELISA, against wild type
[18] = biological target: AAV-2 capsid mutant D357E (rAAV-2 virion) (AAV-2) (UniProt P03135); experiment: all-human IgG ELISA, against wild type
[19] = biological target: AAV-2 capsid mutant S130T (rAAV-2 virion) (AAV-2) (UniProt P03135); experiment: all-human IgG ELISA, against wild type
[20] = biological target: AAV-2 capsid mutant R334A/N568A (rAAV-2 virion) (AAV-2) (UniProt P03135); experiment: all-human IgG ELISA, against wild type
[21] = biological target: AAV-2 capsid mutant G449A/N568A (rAAV-2 virion) (AAV-2) (UniProt P03135); experiment: all-human IgG ELISA, against wild type
[22] = biological target: AAV-2 capsid mutant G449A (rAAV-2 virion) (AAV-2) (UniProt P03135); experiment: all-human IgG ELISA, against wild type
[23] = biological target: AAV-2 capsid mutant V571K (rAAV-2 virion) (AAV-2) (UniProt P03135); experiment: all-human IgG ELISA, against wild type
[24] = biological target: AAV-2 capsid mutant E411A/T413A (rAAV-2 virion) (AAV-2) (UniProt P03135); experiment: all-human IgG ELISA, against wild type
[25] = biological target: AAV-2 capsid mutant H372Q (rAAV-2 virion) (AAV-2) (UniProt P03135); experiment: all-human IgG ELISA, against wild type
[26] = biological target: AAV-2 capsid mutant D132N (rAAV-2 virion) (AAV-2) (UniProt P03135); experiment: all-human IgG ELISA, against wild type
[27] = biological target: AAV-2 capsid mutant V571K (rAAV-2 virion) (AAV-2) (UniProt P03135); experiment: A20/IgG sandwich ELISA: capture on coated Panglobulin, detection with A20-biotin; against wild type

## purified human IgG from >10,000 donors (Panglobulin, ZLB Bioplasma AG)
[1]
  Fold decrease in neutralizing titer: 2.5 fold
[2]
  Fold decrease in neutralizing titer: 1.3 fold
[3]
  Fold decrease in neutralizing titer: 1.1 fold
[4]
  Fold decrease in binding of human IgG: 1 fold
[5]
  Fold decrease in binding of human IgG: 1 fold
[6]
  Fold decrease in binding of human IgG: 1 fold
[7]
  Fold decrease in binding of human IgG: 1 fold
[8]
  Fold decrease in binding of human IgG: 1 fold
[9]
  Fold decrease in binding of human IgG: 1 fold
[10]
  Fold decrease in binding of human IgG: 1 fold
[11]
  Fold decrease in binding of human IgG: 1 fold
[12]
  Fold decrease in binding of human IgG: 1 fold
[13]
  Fold decrease in binding of human IgG: 1 fold
[14]
  Fold decrease in binding of human IgG: 1 fold
[15]
  Fold decrease in binding of human IgG: 1 fold
[16]
  Fold decrease in binding of human IgG: 1 fold
[17]
  Fold decrease in binding of human IgG: 1 fold
[18]
  Fold decrease in binding of human IgG: 1 fold
[19]
  Fold decrease in binding of human IgG: 1 fold
[20]
  Fold decrease in binding of human IgG: 1 fold
[21]
  Fold decrease in binding of human IgG: 1 fold
[22]
  Fold decrease in binding of human IgG: 1 fold
[23]
  Fold decrease in binding of human IgG: 10 fold
[24]
  Fold decrease in binding of human IgG: 1 fold
[25]
  Fold decrease in binding of human IgG: 1 fold
[26]
  Fold decrease in binding of human IgG: 1 fold
[27]
  fold reduction of binding: 100 fold
